The EC50 (read off the curve) is the midpoint of the concentration-response curve. A higher EC50 (read off the curve) goes with a less potent agent. The EC50 is the concentration giving half of the maximal effect. A high value points to a need for much substance. What is called Kd is the free concentration of one partner at which half of the binding sites on the other are occupied at equilibrium, for simple one-to-one binding. Read a high Kd as lower affinity. One may read the koff as the rate constant with which the complex falls apart. The kon is a measure of how fast the partners come together. A lower kon goes with slow association.

Numbering of substitutions follows the chain as printed. In names and notes the source's numbering stands. Read-outs that look alike come from different tables or passages of the source.

Test [1] deals with T1, soluble form of GPC3 core protein (human, UniProt P51654 25-563).
T1 construct: not shown: His tag added to the C-terminus
Briefly: ELISA on plate coated with soluble GPC3 core protein; antibody from COS7 culture supernatant [middle left panel]. On the technique in general: ELISA stands for enzyme-linked immunosorbent assay.

Test [2] addresses T1, soluble form of GPC3 core protein. Briefly: ELISA on plate coated with soluble GPC3 core protein.
In test [3] the target is T2, full-length human GPC3 (human, UniProt P51654 25-554).
T2 construct: On CHO (DXB11) or SK-HEP-1 (SK-03) transfectants; also used here for the GPC3 on the hepatoma lines HepG2 and HuH-7; also called human glypican 3
As to the kind of experiment: flow cytometry, antibody at 5 µg/mL, CHO cells expressing human GPC3 (column CHO/human GPC3). (Flow cytometry measures light scatter and fluorescence of single cells or particles in a stream.)

The target in test [4] is T2, full-length human GPC3. Briefly: flow cytometry, antibody at 5 µg/mL, HepG2 cells.
In test [5] the target is T3, GC-3 (GST fusion of GPC3 Ala524 to Lys563) (human, UniProt P51654 524-563).
T3 construct: not shown: GST as encoded by pGEX-4T-3 (Amersham), N-terminal to the GPC3 peptide
T3 chain: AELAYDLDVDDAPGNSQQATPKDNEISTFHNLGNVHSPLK
Briefly: Western blotting of GST-fusion proteins. (In general: In western blotting, separated proteins are transferred to a membrane and probed.)

For test [6], the target named is T2, full-length human GPC3. Briefly: flow cytometry, antibody at 5 µg/mL, HuH-7 cells.
For test [7], the target named is T1, soluble form of GPC3 core protein. As to the kind of experiment: ELISA on GPC3 (the legend says only GPC3; the filing's ELISA uses plates coated with soluble GPC3 core protein) [lower panel].
Test [8] has the same target. Briefly: ELISA on plate coated with soluble GPC3 core protein; antibody from COS7 culture supernatant [lower left panel].
For test [9] the target is unchanged. Briefly: ELISA on plate coated with soluble GPC3 core protein; antibody from COS7 culture supernatant [upper right panel].
For test [10] the target is unchanged. Briefly: competitive ELISA on coated soluble GPC3 core protein; labelled competitor biotin-M5B9.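 Also: Biotin-labelled antibody added as 10 µL at 10 µg/mL for 1 h.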
Test [11] addresses T2, full-length human GPC3. As to the kind of experiment: BIACORE; the form of GPC3 used is not given.
Test [12] deals with T1, soluble form of GPC3 core protein. Briefly: competitive ELISA on coated soluble GPC3 core protein; labelled competitor biotin-M11F1.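 Also: Biotin-labelled antibody added as 10 µL at 10 µg/mL for 1 h.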
The target is the same in test [13]. Briefly: competitive ELISA on coated soluble GPC3 core protein; labelled competitor biotin-M10D2.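 Also: Biotin-labelled antibody added as 10 µL at 10 µg/mL for 1 h.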
For test [14] the target is unchanged. As to the kind of experiment: competitive ELISA on coated soluble GPC3 core protein; labelled competitor biotin-M6B1.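 Also: Biotin-labelled antibody added as 10 µL at 10 µg/mL for 1 h.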
The target of test [15] is T2, full-length human GPC3. Briefly: flow cytometry, antibody at 5 µg/mL, HuH-7 cells. The source holds these as a separate data set.
In test [16] the target is T2, full-length human GPC3. As to the kind of experiment: flow cytometry, antibody at 5 µg/mL, HepG2 cells. This is another data set of the same source.
Test [17] addresses T1, soluble form of GPC3 core protein. As to the kind of experiment: competitive ELISA on coated soluble GPC3 core protein; labelled competitor biotin-M1E7.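 Also: Biotin-labelled antibody added as 10 µL at 10 µg/mL for 1 h.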
Test [18] concerns the target T2, full-length human GPC3. Briefly: flow cytometry, antibody at 5 µg/mL, CHO cells expressing human GPC3 (column CHO/human GPC3). This is another data set of the same source.
For test [19], the target named is T1, soluble form of GPC3 core protein. Briefly: ELISA on plate coated with soluble GPC3 core protein. The source holds these as a separate data set.
Test [20] has the same target. Briefly: competitive ELISA on coated soluble GPC3 core protein; labelled competitor biotin-M18D4.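 Also: Biotin-labelled antibody added as 10 µL at 10 µg/mL for 1 h.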
For test [21], the target named is T3, GC-3 (GST fusion of GPC3 Ala524 to …). As to the kind of experiment: Western blotting of GST-fusion proteins, reducing SDS-PAGE.
Test [22] deals with T1, soluble form of GPC3 core protein. As to the kind of experiment: competitive ELISA on coated soluble GPC3 core protein; labelled competitor biotin-M3C11.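 Also: Biotin-labelled antibody added as 10 µL at 10 µg/mL for 1 h.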
Test [23] has the same target. As to the kind of experiment: competitive ELISA on coated soluble GPC3 core protein; labelled competitor biotin-L9G11.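 Also: Biotin-labelled antibody added as 10 µL at 10 µg/mL for 1 h.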

T2 sequence (P51654 25-554 limits assumed): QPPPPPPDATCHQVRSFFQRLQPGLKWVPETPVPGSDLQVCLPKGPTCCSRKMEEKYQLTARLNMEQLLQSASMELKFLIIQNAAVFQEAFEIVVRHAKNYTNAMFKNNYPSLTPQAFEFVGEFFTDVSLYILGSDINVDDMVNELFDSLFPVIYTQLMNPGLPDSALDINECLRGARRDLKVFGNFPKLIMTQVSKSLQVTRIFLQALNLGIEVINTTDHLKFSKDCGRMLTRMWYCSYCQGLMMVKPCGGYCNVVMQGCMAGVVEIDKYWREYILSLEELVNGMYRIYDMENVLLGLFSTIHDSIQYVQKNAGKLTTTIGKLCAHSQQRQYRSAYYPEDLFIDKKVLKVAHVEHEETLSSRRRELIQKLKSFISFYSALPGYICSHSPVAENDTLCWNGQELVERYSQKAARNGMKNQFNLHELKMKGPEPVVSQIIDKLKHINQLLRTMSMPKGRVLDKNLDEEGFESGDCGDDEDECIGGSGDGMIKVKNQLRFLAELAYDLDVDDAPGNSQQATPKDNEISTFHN

B1: G34P (antibody, V domains shown)
VH: QVQLVQSGAEVKKPGASVKVSCKASGYTFTDYEMHWVRQAPGQGLEWMGALDPKTGDTAYSQKFKGRVTLTADKSTSTAYMELSSLTSEDTAVYYCTRFYSYTYWGQGTLVTVSS
VL: DVVMTQSPLSLPVTPGEPASISCRSSQSLVHSNPNTYLHWYLQKPGQSPQLLIYKVSNRFSGVPDRFSGSGSGTDFTLKISRVEAEDVGVYYCSQNTHVPPTFGQGTKLEIK
notes: also called modified humanized GC33 (H chain ver.k, L chain G34P)
Take B1: the “EC50 (read off the curve)” value in test [1] is around 0.03 µg/mL.

B2: GC33 (antibody, V domains shown)
VH: QVQLQQSGAELVRPGASVKLSCKASGYTFTDYEMHWVKQTPVHGLKWIGALDPKTGDTAYSQKFKGKATLTADKSSSTAYMELRSLTSEDSAVYYCTRFYSYTYWGQGTLVTVSA
VL: B1 VL with S7T, T14S, P15L, E17D, P18Q, P34G, Q50K, V88L, Y92F, Q105S
notes: Mouse monoclonal from a mouse immunized with GC-3; also called GC33 antibody
B2 registered an EC50 in test [2] of 240 pM. The results for the “FACS X-mode value of the histogram” value in the test with full-length human GPC3 [3], in the test with full-length human GPC3 [4] and with full-length human GPC3 [6] were 82.7, 52 and 8.4, respectively. Besides, the binding result in [5] is listed as “binds”.

B3: humanized GC33 H chain ver.h / L chain ver.a (antibody, V domains shown)
VH: B1 VH with Q6E
VL: B1 VL with P34G
B3: the “EC50 (read off the curve)” value in test [7] is around 0.03 µg/mL.

B4: modified humanized GC33 (H chain ver.k, L chain G34Q) (antibody, human IgG1, V domains shown)
VH: B1 VH
VL: B1 VL with P34Q
notes: COS7 supernatant; human IgG1/kappa
Turning to B4, in test [1], the concentration giving a half-maximal response (EC50 (read off the curve)) is around 0.02 µg/mL.

B5: humanized GC33 H chain ver.i / L chain ver.a (antibody, V domains shown)
VH: B1 VH with K74E, T87R
VL: B1 VL with P34G
With B5, the “EC50 (read off the curve)” value in test [7] was around 0.03 µg/mL.

B6: G34V (antibody, V domains shown)
VH: B1 VH
VL: B1 VL with P34V
notes: also called modified humanized GC33 (H chain ver.k, L chain G34V)
For the molecule B6, in test [8], the “EC50 (read off the curve)” value is around 0.02 µg/mL.

B7: modified humanized GC33 (H chain ver.k, L chain G34N) (antibody, human IgG1, V domains shown)
VH: B1 VH
VL: B1 VL with P34N
notes: as for B4
In the case of B7, the concentration giving a half-maximal response (EC50 (read off the curve)) in test [1] is around 0.02 µg/mL.

B8: modified humanized GC33 (H chain ver.k, L chain G34W) (antibody, human IgG1, V domains shown)
VH: B1 VH
VL: B1 VL with P34W
notes: as for B4
Regarding B8, the “EC50 (read off the curve)” value in [8] is around 0.02 µg/mL.

B9: modified humanized GC33 (H chain ver.k, L chain G34F) (antibody, human IgG1, V domains shown)
VH: B1 VH
VL: B1 VL with P34F
notes: as for B4
Regarding B9, in test [9], the “EC50 (read off the curve)” value was around 0.02 µg/mL.

B10: GC33 mouse H chain variable region / humanized L chain ver.a (antibody, V domains shown)
VH: B2 VH
VL: B1 VL with P34G
notes: also called mouse/ver.a
Consider B10, for which the “EC50 (read off the curve)” value in test [7] is around 0.03 µg/mL.

B11: modified humanized GC33 (H chain ver.k, L chain G34E) (antibody, human IgG1, V domains shown)
VH: B1 VH
VL: B1 VL with P34E
notes: as for B4
On to B11, for which, in test [9], the concentration for a half-maximal effect (EC50 (read off the curve)) was around 0.02 µg/mL.

B12: modified humanized GC33 (H chain ver.k, L chain G34H) (antibody, human IgG1, V domains shown)
VH: B1 VH
VL: B1 VL with P34H
notes: as for B4
With B12, in test [9], the “EC50 (read off the curve)” value was around 0.02 µg/mL.

B13: modified humanized GC33 (H chain ver.k, L chain G34Y) (antibody, human IgG1, V domains shown)
VH: B1 VH
VL: B1 VL with P34Y
notes: as for B4
B13: the “EC50 (read off the curve)” value in test [8] was around 0.02 µg/mL.

B14: GC199 (antibody, V domains shown)
VH: QIQLEQSGPELKKPGETVKISCKASGYIFRDYSMHWVKQAPGKGLKWMGWINTETGEPTYADDFKGRFAFSLETSASTAYLQINNLKNEDTATYFCTSLYWGQGTLVTVSA
VL: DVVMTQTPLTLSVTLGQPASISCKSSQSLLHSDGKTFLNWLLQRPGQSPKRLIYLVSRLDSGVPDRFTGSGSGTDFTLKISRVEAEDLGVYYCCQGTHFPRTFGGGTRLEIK
notes: Mouse monoclonal from a mouse immunized with GC-3; also called GC199 antibody
With B14, a half-maximal effect in [2] (EC50) was put at 100 pM. The “FACS X-mode value of the histogram” value with full-length human GPC3 [3] amounted to 15.5; with full-length human GPC3 [4] it was 12.2; in the test with full-length human GPC3 [6] it was 2.4. The binding result in [5] is listed as “binds”.

B15: GC194 (antibody, V domains shown)
VH: EVQLVETGGGLVQPKGSLKLSCAASGFTFNASAMNWVRQAPGKGLEWVARIRSKSNNYAIYYADSVKDRFTISRDDSQSMLYLQMNNLKTEDTAMYYCVRDPGYYGNPWFAYWGQGTLVTVSA
VL: DIVMTQAAFSNPVTLGTSASISCRSSKSLLHSYDITYLYWYLQKPGQSPQLLIYQMSNLASGVPDRFSSSGSGTDFTLRISRVEAEDVGVYYCAQNLELPPTFGGGTKLEIK
B15 showed an EC50 in test [2] of 3830 pM. Further, the “FACS X-mode value of the histogram” value is 5 with full-length human GPC3 [3], 7.9 with full-length human GPC3 [4] and 1.5 in the test with full-length human GPC3 [6].

B16: M3C11 (antibody, human IgG1, kappa, V domains shown)
VH: EVQLVESGGGLVKPGGSLKLSCAASGFTFSRYAMSWVRQIPEKILEWVAAIDSSGGDTYYLDTVKDRFTISRDNANNTLHLQMRSLRSEDTALYYCVRQGGAYWGQGTLVTVSA
VL: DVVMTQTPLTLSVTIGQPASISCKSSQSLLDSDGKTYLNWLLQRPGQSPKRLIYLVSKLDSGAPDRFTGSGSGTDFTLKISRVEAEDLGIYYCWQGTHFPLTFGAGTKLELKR
notes: Mouse monoclonal from hybridoma
B16: the “Inhibition of the binding of indicated biotin-Mab to sGPC3 core (%)” value amounted to 9.1% in test [10]; 12% in [12]; 39.9% in [13]; 11.2% in test [14]; 96.2% in test [17]; 10.3% in [20]. The entries for the “Inhibition of the binding of indicated biotin-Mab to sGPC3 core (%)” value in test [22] and in test [23] were 96.8% and 33.1%, respectively. In addition, in the test with full-length human GPC3 [11], the Kd amounted to 300 pM. The koff with full-length human GPC3 [11] was 6.5e-05 s⁻¹. For the same molecule, the kon with full-length human GPC3 [11] was 250000 M⁻¹ s⁻¹. Also, the “FACS X-mode value of the histogram” value in the test with full-length human GPC3 [15] was 9; with full-length human GPC3 [16] it was 59; in the test with full-length human GPC3 [18], 83. Also, in test [19], a half-maximal effect (EC50) was put at 120 pM. The binding result in [21] is reported as “no binding”.

(Values after patent publication US20100248359A1 (Chugai, published 2010).)
